# Results: a protein production outcome set (Wang et al. 2014)
# Test: label from the status in PepcDB records
row,Sequence,protein production
1,MQSSNDPPRGAGGGPECAADHRAVPGRTYVETGQGAGYDGPRYDDPWYDALASGWGESAGPAAPGPTVPPMRRSAPAEPPRAAADVYLEVQRSAAFQEVRSRYRRFVVPAVAGFFLWYVAYVVAATSAPALMARPVAGAVNVAMVAGLGQFLTTFLLTWAYARHARLRRDRAALELRWDTQELTRGVRGDAS,failed
2,MAWGVCDINGSFAGQNPVTTRLSVRRCQWRCVDFAHSKCLRTQNYRVQMRSCRTGVYGSPRGDANEAVPPPHQPKGPLRTMPLETLINAGFVDYLILLIYFVFVLGIGLAARHQVSDSLDFFLSGRSLPGWVTGLAFVSANLGAVEIMGMSANGAQIGIPTVHYFWIGAIPAMVFLGIVMMPFYYGSGVRSVPEFMLKRFGPAAHLVNAISFALAQLLIAGINLYLLGTIVHALLGWPLWVALIVAAMIVLAYISLGGLSAAIYNEVLQFFVIVASLLPLVIIGLHRVGGWSGLKAKITAAAEAHPDVVTPAAQQLHSWPGQALSGFGSPVMSVIGITLGLGFVLSFGYWTTNFVEVQRAMASDSLSSARKTPTIGAFPKMLVPFLTVLPGMLAAVLVPEIARMKAGEKVAGGASGSFVQYNDSVLFLIRNLLPTGLTGVAITGLLAAFMAGMAANISAFNTVFSVDIWQHYVIKDKPDGYYVKVGRIATVIATVVAIGTAFMASGFSNIMDYLQTLFGFFNAPLFATFILGMFWKRSTPHAGWSGLVVGTLSAVTVWVMSLAGVFTLPGQGTAFLAATVGFVADIIVSIVVSLFTEPKPAAELVRLVYSETPKEHLVDPLEKDLPWYRRTVPLGMTVLAITVVLNIIF,failed
3,MNQTFIYYTVLFLIIFITISNLVENYRYSPKKIKNIIGIAFLLQIIRIVSLIALALVSDQRYISLFKYVGFLDIIYIPLMALIAFYILLRSDKINFQFFKFAPMVLTGFYIGVITIFKPFFKMSWEYGYVITTEKQILLKSIYILFLVAILSFLILFKKENHSDKKGIVFLGVTLAFIIIENSLELLGVRFLNGAIISELILCILGFYIVLTFKKNRISIRDCIKS,failed
4,MNRGVIVTGGGHGIGKQICLDFLEAGDKVCFIDIDEKRSADFAKERPNLFYFHGDVADPLTLKKFVEYAMEKLQRIDVLVNNACRGSKGILSSLLYEEFDYILSVGLKAPYELSRLCRDELIKNKGRIINIASTRAFQSEPDSEAYASAKGGIVALTHALAMSLGPDVLVNCIAPGWINVTEQQEFTQEDCAAIPAGKVGTPKDISNMVLFLCQQDFITGETIIVDGGMSKRMIYHGDWNWFYKIDK,not failed
5,MNENHKELISIGLTVSIVIFSLYIVHKFIPSMIWAAIIVIATYPLYTRWRKLFGNKHNTSAFLFTTLMGLLFLIPLSWLIGILIKESQLFINFLQHINKEGGAAPEFFKNIPLVGDDLIQYWDVNIGKPGNIKEFLSNLHVTLTPTSYYIKQIGVNLAHRSFQVGFTLLTLFFFYRDGDKLLLQIQHIGEYCLGDRWFRYSDRLPSALRGTVNGTIVVGIGVGILMGVCYALVGFPAPTLTGFITALAAMIPFVVPVVFIIVALILLSVGSLIGGIIVLVWGTLVMFVADHFVKPVLIGGAIQLPFLAVLFGILGGVETLGLLGLFLGPMVMVLFVTLWQEPQGHKKSSG,failed
6,MASSAFAFPSYIITKGGLSTDSCKSTSLSSSRSLVTDLPSPCLKPNNNSHSNRRAKVCASLAEKGEYYSNRPPTPLLDTINYPIHMKNLSVKELKQLSDELRSDVIFNVSKTGGHLGSSLGVVELTVALHYIFNTPQDKILWDVGHQSYPHKILTGRRGKMPTMRQTNGLSGFTKRGESEHDCFGTGHSSTTISAGLGMAVGRDLKGKNNNVVAVIGDGAMTAGQAYEAMNNAGYLDSDMIVILNDNKQVSLPTATLDGPSPPVGALSSALSRLQSNPALRELREVAKGMTKQIGGPMHQLAAKVDEYARGMISGTGSSLFEELGLYYIGPVDGHNIDDLVAILKEVKSTRTTGPVLIHVVTEKGRGYPYAERADDKYHGVVKFDPATGRQFKTTNKTQSYTTYFAEALVAEAEVDKDVVAIHAAMGGGTGLNLFQRRFPTRCFDVGIAEQHAVTFAAGLACEGLKPFCAIYSSFMQRAYDQVVHDVDLQKLPVRFAMDRAGLVGADGPTHCGAFDVTFMACLPNMIVMAPSDEADLFNMVATAVAIDDRPSCFRYPRGNGIGVALPPGNKGVPIEIGKGRILKEGERVALLGYGSAVQSCLGAAVMLEERGLNVTVADARFCKPLDRALIRSLAKSHEVLITVEEGSIGGFGSHVVQFLALDGLLDGKLKWRPMVLPDRYIDHGAPADQLAEAGLMPSHIAATALNLIGAPREALF,failed
